Earlier results, collected in article PMC2943937.

Biological target: CAR (Mus musculus) (UniProt P97792)
Chain of UniProt P97792 (P97792 20-237): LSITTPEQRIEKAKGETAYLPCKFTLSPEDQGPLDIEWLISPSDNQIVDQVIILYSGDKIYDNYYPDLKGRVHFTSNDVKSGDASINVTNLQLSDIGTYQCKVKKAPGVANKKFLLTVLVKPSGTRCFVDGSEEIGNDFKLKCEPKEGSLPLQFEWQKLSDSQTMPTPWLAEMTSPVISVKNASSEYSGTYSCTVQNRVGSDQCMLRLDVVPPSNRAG

JAML (from UniProt Q80UL9)
Kd: 5 µM
